What was measured:
[1] = target: fibrin; assay: binding of tPA variants to a solid-phase fibrin surface on PVC plates (3 independent experiments, 12 doses)
[2] = target: N-methyl-D-aspartate receptor on primary cultured mouse cortical neurons (mouse) (UniProt P35438); assay: cell-based or functional assay

Kd [1] [nM]	Substance	neuronal death (LDH release, cortical neurons, 50 uM NMDA, 0.3 uM tPA) [2] [%]	potentiation of NMDAR-mediated excitotoxicity (LDH release, cortical neurons, 50 uM NMDA, 0.3 uM tPA) [2] [%]
0.82	rat tPA with complete deletion of its K2 domain (deletion of the amino acids 181 to 262), 6xHis-tagged (from UniProt P19637 33-212; P19637 295-559) (enzyme)		
	rat wild type tPA (Rattus norvegicus), 6xHis-tagged (from UniProt P19637 33-559) (enzyme)	71	39
